The text below walks through data of US20150344570A1 (published 2015).

For test [1], the target named is T1, FcγRIIa H (human, UniProt P12318 34-217).
T1 construct: extracellular domain; also called FcgRIIa H; 2aH; not shown: His tag attached to the C terminus
T1 sequence (looked up): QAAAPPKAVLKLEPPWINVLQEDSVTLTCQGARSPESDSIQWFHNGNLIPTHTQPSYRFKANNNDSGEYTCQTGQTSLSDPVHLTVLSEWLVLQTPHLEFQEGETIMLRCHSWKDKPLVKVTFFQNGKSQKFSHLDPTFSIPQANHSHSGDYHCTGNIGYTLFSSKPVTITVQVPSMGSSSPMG
The experiment in a line: SPR (Biacore), antibody captured on antigen peptide chip, FcγR as analyte; relative binding activity. The method, then: (§1) The heterodimerized antibodies He Abs in which one of the H chains was introduced with an alteration were assayed for their binding activities to each activating FcγR and inhibitory FcγR according to the method described in Example 4. […] The activating FcγRs in FIGS. 26, 27, 28, and 29 are FcγRIa, FcγRIIa (R), FcγRIIa (H), and FcγRIIIa, respectively.
(§2) Analysis of interaction between objective antibody and the FcγR was carried out using Biacore T100 (GE Healthcare). HBS-EP+ (GE Healthcare) was used as the running buffer, and the measurement temperature was set to 25° C. Chips produced by immobilizing the antigen peptide by the amine coupling method to a Series S Sencor Chip CM5 (GE Healthcare), or alternatively, chips produced by allowing preliminarily biotinylated antigen peptides to interact with and immobilize onto a Series S Sensor Chip SA (certified) (GE Healthcare) were used. Antibodies of interest were captured onto an antigen peptide-immobilized chip, and allowed to interact to each FcγR diluted with running buffer. To regenerate and repeatedly use the chip, the antibodies captured on the chip were washed off by reacting 10 mM glycine-HCl, pH 1.5.

In test [2] the target is T2, FcγRIIb (human, UniProt P31994 43-217).
T2 construct: extracellular domain; also called FcgRIIb; 2b; not shown: His tag attached to the C terminus
T2 sequence (looked up): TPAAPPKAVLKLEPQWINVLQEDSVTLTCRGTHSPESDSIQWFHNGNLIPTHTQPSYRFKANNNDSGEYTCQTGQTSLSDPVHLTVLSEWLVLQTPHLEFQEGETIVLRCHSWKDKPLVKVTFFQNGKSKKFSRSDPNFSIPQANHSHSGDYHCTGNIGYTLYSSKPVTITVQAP
The test is described as above. As to the method:
as §1, §2

In test [3] the target is T1, FcγRIIa H. The experiment in a line: SPR; He/Con for FcγRIIa H divided by He/Con for FcγRIIb.
In test [4] the target is T3, FcγRIIa H (human, UniProt P12318 34-217).
T3 construct: extracellular domain; also called FcgRIIa H; FcγRIIa type H
T3 sequence (looked up): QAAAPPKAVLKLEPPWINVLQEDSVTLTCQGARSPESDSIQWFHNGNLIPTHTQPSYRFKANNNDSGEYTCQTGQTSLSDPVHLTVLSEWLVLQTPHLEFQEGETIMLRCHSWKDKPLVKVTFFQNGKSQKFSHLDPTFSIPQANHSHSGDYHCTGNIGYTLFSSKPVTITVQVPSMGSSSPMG
The experiment in a line: SPR (Biacore); He/Con_2aH divided by He/Con_2b (FcγRIIa H over FcγRIIb). (In general: SPR reads the build-up and loss of mass on a sensor chip optically.)

Test [5] deals with T3, FcγRIIa H. The experiment in a line: SPR (Biacore), antibody captured, FcγR analyte; binding relative to GpH7-A5/GpH7-B3/GpL16-k0 = 100.
Test [6] addresses T4, FcγRIIb (human, UniProt P31994 43-217).
T4 construct: extracellular domain; also called FcgRIIb; 2b
T4 sequence (looked up): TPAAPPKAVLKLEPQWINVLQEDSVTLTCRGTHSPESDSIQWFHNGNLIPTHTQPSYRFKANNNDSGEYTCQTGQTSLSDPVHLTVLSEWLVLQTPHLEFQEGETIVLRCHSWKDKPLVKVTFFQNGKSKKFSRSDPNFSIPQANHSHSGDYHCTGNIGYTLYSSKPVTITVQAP
The description is as above.

B1: GpH7-A5/GpH7-B3 variant S239_12R/GpL16-k0 (antibody, human IgG1, kappa)
heavy 1: not shown
heavy 2: not shown
light: DIVMTQSPLSLPVTPGEPASISCQASESLVHSNRNTYLHWYLQKPGQSPQLLIYKVSNRFSGVPDRFSGSGSGTDFTLKISRVEAEDVGVYYCSQNTHVPPTFGQGTKVEIERTVAAPSVFIFPPSDEQLKSGTASVVCLLNNFYPREAKVQWKVDNALQSGNSQESVTEQDSKDSTYSLSSTLTLSKADYEKHKVYACEVTHQGLSSPVTKSFNRGEC
notes: Heterodimerized anti-glypican-3 IgG1; mutation in one H chain only; also called He Ab
With B1, the He/Con_2aH in test [1] was 57.1 % of GpH7-A5/GpH7-B3/GpL16-k0 (=100). The He/Con_2b in test [2] was 39.1 % of GpH7-A5/GpH7-B3/GpL16-k0 (=100). Besides, in test [3], the “He_2aH/2b (IIaH/IIb)” value amounted to 1.46 ratio.

B2: GpH7-A5/GpH7-B3 variant G237_02A/GpL16-k0 (antibody, human IgG1, kappa)
heavy 1: not shown
heavy 2: not shown
light: DIVMTQSPLSLPVTPGEPASISCQASESLVHSNRNTYLHWYLQKPGQSPQLLIYKVSNRFSGVPDRFSGSGSGTDFTLKISRVEAEDVGVYYCSQNTHVPPTFGQGTKVEIERTVAAPSVFIFPPSDEQLKSGTASVVCLLNNFYPREAKVQWKVDNALQSGNSQESVTEQDSKDSTYSLSSTLTLSKADYEKHKVYACEVTHQGLSSPVTKSFNRGEC
notes: Heterodimerized antibody, alteration in one H chain only; also called He Ab G237A
Turning to B2, the “He_2aH/2b (IIaH/IIb)” value in test [4] is 0.27 ratio. In addition, the He/Con_2aH in test [5] was 34 % of control. For the same molecule, in test [6], the He/Con_2b was 124 % of control.

B3: GpH7-A5/GpH7-B3 variant V266_05P/GpL16-k0 (antibody, human IgG1, kappa)
heavy 1: not shown
heavy 2: not shown
light: DIVMTQSPLSLPVTPGEPASISCQASESLVHSNRNTYLHWYLQKPGQSPQLLIYKVSNRFSGVPDRFSGSGSGTDFTLKISRVEAEDVGVYYCSQNTHVPPTFGQGTKVEIERTVAAPSVFIFPPSDEQLKSGTASVVCLLNNFYPREAKVQWKVDNALQSGNSQESVTEQDSKDSTYSLSSTLTLSKADYEKHKVYACEVTHQGLSSPVTKSFNRGEC
notes: as for B1
B3: the He/Con_2aH in test [1] was 0.7 % of GpH7-A5/GpH7-B3/GpL16-k0 (=100). In addition, in test [2], the He/Con_2b was 0.4 % of GpH7-A5/GpH7-B3/GpL16-k0 (=100). In addition, the “He_2aH/2b (IIaH/IIb)” value in test [3] came out at 1.91 ratio.

B4: GpH7-A5/GpH7-B3 variant S239_16H/GpL16-k0 (antibody, human IgG1, kappa)
heavy 1: not shown
heavy 2: not shown
light: DIVMTQSPLSLPVTPGEPASISCQASESLVHSNRNTYLHWYLQKPGQSPQLLIYKVSNRFSGVPDRFSGSGSGTDFTLKISRVEAEDVGVYYCSQNTHVPPTFGQGTKVEIERTVAAPSVFIFPPSDEQLKSGTASVVCLLNNFYPREAKVQWKVDNALQSGNSQESVTEQDSKDSTYSLSSTLTLSKADYEKHKVYACEVTHQGLSSPVTKSFNRGEC
notes: as for B1
Consider B4, for which the He/Con_2aH in test [1] is 59.4 % of GpH7-A5/GpH7-B3/GpL16-k0 (=100). Also, in test [2], the He/Con_2b is 49.4 % of GpH7-A5/GpH7-B3/GpL16-k0 (=100). Moreover, the “He_2aH/2b (IIaH/IIb)” value in test [3] came to 1.2 ratio.

B5: GpH7-A5/GpH7-B3 variant G236_09D/GpL16-k0 (antibody, human IgG1, kappa)
heavy 1: not shown
heavy 2: not shown
light: DIVMTQSPLSLPVTPGEPASISCQASESLVHSNRNTYLHWYLQKPGQSPQLLIYKVSNRFSGVPDRFSGSGSGTDFTLKISRVEAEDVGVYYCSQNTHVPPTFGQGTKVEIERTVAAPSVFIFPPSDEQLKSGTASVVCLLNNFYPREAKVQWKVDNALQSGNSQESVTEQDSKDSTYSLSSTLTLSKADYEKHKVYACEVTHQGLSSPVTKSFNRGEC
notes: Heterodimerized antibody, alteration in one H chain only; also called He Ab G236D
Turning to B5, the “He_2aH/2b (IIaH/IIb)” value in test [4] was found to be 0.54 ratio. In addition, the He/Con_2aH in test [5] is 89.8 % of control. The He/Con_2b in test [6] was 167 % of control.

B6: GpH7-A5/GpH7-B3 variant G237_12R/GpL16-k0 (antibody, human IgG1, kappa)
heavy 1: not shown
heavy 2: not shown
light: DIVMTQSPLSLPVTPGEPASISCQASESLVHSNRNTYLHWYLQKPGQSPQLLIYKVSNRFSGVPDRFSGSGSGTDFTLKISRVEAEDVGVYYCSQNTHVPPTFGQGTKVEIERTVAAPSVFIFPPSDEQLKSGTASVVCLLNNFYPREAKVQWKVDNALQSGNSQESVTEQDSKDSTYSLSSTLTLSKADYEKHKVYACEVTHQGLSSPVTKSFNRGEC
notes: Heterodimerized antibody, alteration in one H chain only; also called He Ab G237R
For B6, the “He_2aH/2b (IIaH/IIb)” value in test [4] is 0.76 ratio. In test [5], the He/Con_2aH was 7.5 % of control.

B7: GpH7-A5/GpH7-B3 variant G237_03V/GpL16-k0 (antibody, human IgG1, kappa)
heavy 1: not shown
heavy 2: not shown
light: DIVMTQSPLSLPVTPGEPASISCQASESLVHSNRNTYLHWYLQKPGQSPQLLIYKVSNRFSGVPDRFSGSGSGTDFTLKISRVEAEDVGVYYCSQNTHVPPTFGQGTKVEIERTVAAPSVFIFPPSDEQLKSGTASVVCLLNNFYPREAKVQWKVDNALQSGNSQESVTEQDSKDSTYSLSSTLTLSKADYEKHKVYACEVTHQGLSSPVTKSFNRGEC
notes: Heterodimerized antibody, alteration in one H chain only; also called He Ab G237V
Consider B7, for which the “He_2aH/2b (IIaH/IIb)” value in test [4] is 0.64 ratio. Also, the He/Con_2aH in test [5] is 39.4 % of control. Also, the He/Con_2b in test [6] is 61.4 % of control.
